Here are results for two molecules from article PMC2119555.

“And” between values parts separate entries of the source, which are not always exact repeats. Equal entries are not always repeated.

For test [1], the target named is murine FGFR-2 (bek) expressed on CHO cells (murine) (UniProt P21803). Kind of test: radioligand binding.
Test [2] deals with murine FGFR-1 (flg) expressed on CHO cells (murine) (UniProt P16092). Nature of the test: radioligand binding.

B1: recombinant K140 (NH2-terminally truncated K-FGF, residues 67-206) (ligand)
chain: MAAVQSGAGDYLLGIKRLRRLYCNVGIGFHLQALPDGRIGGAHADTRDSLLELSPVERGVVSIFGVASRFFVAMSSKGKLYGSPFFTDECTFKEILLPNNYNAYESYKYPGMFIALSKNGKTKKGNRVSPTMKVTHFLPRL
modifications: 125I-labeled Bolton-Hunter reagent (where used as the labelled ligand)
With B1, in test [1], the Kd was determined as 0.06 nM; the fold affinity over K-FGF (competition) was 2 fold; the fold affinity over bFGF and K-FGF (competition against 125I-bFGF) is 2 fold and 3 fold. In test [2], this molecule registered a Kd of 0.09 nM.

B2: recombinant wild-type K-FGF (human K-FGF/HST, FGF-4) (ligand)
chain: APTAPNGTLEAELERRWESLVALSLARLPVAAQPKEAAVQSGAGDYLLGIKRLRRLYCNVGIGFHLQALPDGRIGGAHADTRDSLLELSPVERGVVSIFGVASRFFVAMSSKGKLYGSPFFTDECTFKEILLPNNYNAYESYKYPGMFIALSKNGKTKKGNRVSPTMKVTHFLPRL
modifications: 125I-labeled Bolton-Hunter reagent (where used as the labelled ligand)
On to B2, for which the Kd in test [1] was determined as 0.14 nM; in test [2], 0.28 nM. This molecule gave a fold more unlabeled competitor required than of K140 in test [2] of 5 fold.
